Values belong to the binder of their own block, whether it stands above or below them.
Target: T1, human epidermal growth factor receptor 2 (HER2) (human (endogenous in SKOV-3, BT474, …, UniProt P04626 23-1255))
T1 construct: human epidermal growth factor receptor 2 (HER2), endogenous on the cell lines SKOV-3, BT474 and DU145; also called HER2 receptor; source: endogenous, on living SKOV-3, BT474 and DU145 cells
Experiment: radioligand binding; LigandTracer, real-time association and dissociation on living SKOV-3 cells at room temperature; radioconjugate at 1, 4 and 8 nM; TraceDrawer fit with a 1:2 binding model
Conditions: one partner purified

- KD of the strongest interaction (1:2 binding model): 362 ± 130 pM
- KD of the weaker interaction (1:2 binding model): 7.7 ± 2.8 nM
B1: [125I]I-DARPin 9_29 (designed binder)
chain: MDLGKKLLEAARAGQDDEVRILMANGADVNAHDFYGITPLHLAANFGHLEIVEVLLKHGADVNAFDYDNTPLHLAADAGHLEIVEVLLKYGADVNASDRDGHTPLHLAAREGHLEIVEVLLKNGADVNAQDKFGKTAFDISIDNGNEDLAEILQKLAAALE
modifications: iodine-125 label attached to tyrosine (direct radioiodination)
notes: designed ankyrin repeat protein 9_29 against HER2; also called radioiodinated DARPin 9_29; source: E. coli BL21(DE3), purified (HisTrap HP, MonoQ); directly radioiodinated with chloramine T, purified on NAP-5; not shown: His6, C-terminal, kept

- KD of the strongest interaction (1:2 binding model): 439 ± 156 pM
- KD of the weaker interaction (1:2 binding model): 9.1 ± 2.7 nM
B2: [99mTc]Tc(CO)3-DARPin 9_29 (designed binder)
chain: B1 chain
modifications: [99mTc]Tc(CO)3 chelated by the C-terminal hexahistidine tag
notes: designed ankyrin repeat protein 9_29 against HER2; also called 99mTc(CO)3-DARPin 9_29; [99mTc]Tc-DARPin 9_29; source: E. coli BL21(DE3), purified (HisTrap HP, MonoQ); labelled with technetium-99m tricarbonyl, purified on NAP-5; not shown: His6, C-terminal, kept
